Measured values reported in patent publication US9618524B2, “Method, composition, isolation and identification of a plaque particle and related biomarker” (Plaxgen Inc., priority 2012, dated 2017).

Columns and labels:
Test in all cases: Mass spectroscopy proteomics, semi-quantitative binding affinity of serum proteins (plaqueproteome, Table 2)
Settings in all cases: higher number = stronger affinity
[1] = molecular target: T1, Abeta-42 plaque particles (Homo sapiens, UniProt P05067)
T1 construct: Abeta 1-42
Experimental: Next to isolate serum derived Abeta-42 plaque particles, the plasma or serum samples obtained from AD subjects were first centrifuged at 5,000 rpm for 5 min and the supernatants were transferred to new centrifuge tubes. Next, the supernatants were diluted in PBS to make 50% of the serum and plasma samples and used for incubation with Abeta-42 plaque oligomers/aggregates. Each assay was performed in 1 mL reaction (800 μL of 50% plasma or serum) and 200 μL (30 μg) of the Abeta-42 aggregates and the mixtures were incubated at 37° C. for 1 hr. To the mixture Thioflavin S dye (120 μg) was added and the sample was incubated for additional 30 min at 37° C. After the incubation, the mixture was directly used for sample acquisition using flow cytometer (FACS ARIA II, BD Biosciences, San Jose, Calif.). After initial detection of Abeta-42 plaque particles in the acquisition blot, gates were drawn in fluorescent dot blot to separately sort and isolate fluorescently labeled Abeta-42 particles.
(§1) For preparing trypsin digested peptide sequences, the isolated plaque particles were centrifuged at 10000 rpm for 5 min and the pellet containing plaque particles was resuspended in 100 μl PBS buffer. Stock solutions of digestion buffer (Ammonium Biocarbonate 50 mM), reducing buffer (DDT 100 mM) and alkylation buffer (lodoaceamide 100 mM) were prepared and stored at −20° C. for up to two months. For trypsin digestion, 100 μl of each plaque particles (2000 of Abeta-42, cholesterol, Tau and alpha-synuclein) were precipitated using cold acetone −80° C. by adding 4X's the volume. The samples were placed on dry ice for 10 min with intermittent vortex. Next, the samples were centrifuged at 4° C. at 10000 G for 10 min. Top layer of acetone was carefully removed from the tube with care not to disturb the plaque particles pellet. The samples were speed-vac for 10 min to ensure all acetone has been boiled away. The plaque particles pellet were reconstituted with 15 μl 8M Urea 100 mM Ammonium bicarbonate stock and 20 μl protease max solution. The protease max solution (Promega, Madison, Wis.) was prepared from stock by adding 60 μl 50 mM Ammonium bicarbonate and used for 3 solution digests (20 μl each). […] The tubes were incubated at 55° C. for 30 minutes. The tubes were then removed and brought to the room temperature followed by addition of 3.2 μl of 1M acrylamide and incubated at room temperature for 30 minutes. To the sample, 63 μL of 50 mM Ammonium bicarbonate was added for a final volume of 98 μl and 2 μl of trypsin (10 μg, Trypsin/Lys C Mix). After mixing the solution with pipet the samples were incubated at 37° C. overnight. After the overnight digest, the tryptic digest were quenched and acidified by adding 10 μl of 50% formic acid/water stock dilution. The samples were centrifuged at 10000 G for 2 minutes and purified using stage tip and used for MS/Mass analysis.
(§2) All MS/MS samples were analyzed using Sequest (Thermo Fisher Scientific, San Jose, Calif., USA; version 1.0). Sequest was set up to search the SUMS_uniprot_Human database (35847 entries) assuming the digestion enzyme strict trypsin. Sequest was searched with a fragment ion mass tolerance of 1.00 Da and a parent ion tolerance of 20 PPM. Propionamide of cysteine was specified in Sequest as a fixed modification. Oxidation of methionine and phospho of serine, threonine and tyrosine were specified in Sequest as variable modifications.
Scaffold (version Scaffold_4.2.1, Proteome Software Inc., Portland, Oreg.) was used to validate MS/MS based peptide and protein identifications. […] Protein probabilities were assigned by the Protein Prophet algorithm (Nesvizhskii, Al et al 2003). […] Proteins sharing significant peptide evidence were grouped into clusters. Proteins were annotated with GO terms from NCBI (downloaded Jan. 17, 2014).

[2] = tested on: Low density cholesterol (Chl small) plaque particles; design: species or system human
Experimental: (§3) The goal was to isolate plaque particles synthesized in the bio-fluids in a relatively pure form to enable their subsequent use for identification of components that contribute to the plaque formation. In order to isolate cholesterol plaque particles, the plasma or serum samples obtained from atherosclerotic subjects were first centrifuged at 5,000 rpm for 5 min and the supernatants were transferred to new centrifuge tubes. Next, the supernatants were diluted in PBS to make 50% of the serum and used for incubation with cholesterol oligomers/aggregates. Each assay was performed in 1 mL reaction (800 μL of 50% plasma or serum) and 200 μL (30 μg) of the Cholesterol aggregates and the mixtures were incubated at 37° C. for 1 hr After the incubation, the mixture was directly used for sample acquisition using flow cytometer (FACS ARIA II, BD Biosciences, San Jose, Calif.). […] In order to isolate these fractions, three sets of gates were drawn in the acquisition blot to separately sort and isolate High density or high complex cholesterol particles, Low density or low complex cholesterol particles and both High and low density cholesterol particles together.
as §1, §2
(§4) Scaffold (version Scaffold_4.2.1, Proteome Software Inc., Portland, Oreg.) was used to validate MS/MS based peptide and protein identifications. […] Protein probabilities were assigned by the Protein Prophet algorithm (Nesvizhskii, Al et al 2003).

[3] = tested on: High Density cholesterol (Chl Large) plaque particles; design: species or system human
Experimental: as §3, §1, §2, §4

[4] = molecular target: T2, alpha-synuclein plaque particles (Homo sapiens, UniProt P37840)
T2 construct: 140 amino acids polypeptide
Experimental: To prepare oligomers/aggregates of human alpha-synuclein (140 amino acids polypeptide), 1 mg of the recombinant alpha-synuclein protein was suspended in 1 mL of PBS and the sample was incubated at 37° C. for 2 hrs. After incubation, all the samples were centrifuged for 5 min. at 5000 rpm to remove precipitate, if any, and the supernatant containing oligomers/aggregates were used in vitro plaque particles formation assay. For detecting alpha-synuclein plaque particles Thioflavin S (Ex/Em=430 nm/550 nm) amyloid binding fluorescent dye (10 μg) was used.
Similarly, to isolate alpha-synuclein plaque particles, diluted plasma or serum samples obtained from AD subjects were used for incubation with alpha-synuclein plaque oligomers/aggregates. Each assay was performed in 1 mL reaction (800 μL of 50% plasma or serum) and 200 μL (30 μg) of the alpha-synuclein aggregates and the mixtures were incubated at 37° C. for 1 hr. To the mixture Thioflavin S dye (120 μg) was added and the sample was incubated for additional 30 min at 37° C. After the incubation, the mixture was directly used for sample acquisition using flow cytometer (FACS ARIA II, BD Biosciences, San Jose, Calif.). After initial detection of alpha-synuclein plaque particles, gates were drawn in the acquisition blot to separately sort and isolate fluorescently labeled alpha-synuclein particles.
as §1, §2
Scaffold (version Scaffold_4.2.1, Proteome Software Inc., Portland, Oreg.) was used to validate MS/MS based peptide and protein identifications.

Tau plaque particles = tested on: Tau plaque particles; design: species or system human
Experimental: For Tau-74 (74-102) (Exon 3/Insert 2 domain) preparation, 1 mg of Tau-74 was suspended in 1 mL of PBS and the sample was incubated at 37° C. for 2 hrs. Similarly for preparing Tau-275 (275-305) (Repeat 2 domain) 1 mg of the peptide was suspended in 1 mL of PBS and the sample was incubated at 37° C. for 2 hrs. After incubation, all the samples were centrifuged for 5 min. at 5000 rpm to remove precipitate, if any, and the supernatant containing oligomers/aggregates were used for in vitro amyloid plaque particles formation assay. For detecting Tau plaque particles, Thioflavin S (Ex/Em=430 nm/550 nm) amyloid binding fluorescent dye (10 μg) was used in the assay.
Next, to isolate Tau plaque particles, as performed for Abeta-42 and Abeta-28 plaque particles isolation, diluted serum samples were used for incubation separately with Tau-45, Tau-74 and Tau-275 oligomers/aggregates. Each assay was performed in 1 mL reaction (800 μL of 50% plasma or serum) and 200 μL (30 μg) of each Tau aggregates and the mixtures were incubated at 37° C. for 1 hr. To the each mixture Thioflavin S dye (120 μg) was added and the sample was incubated for additional 30 min at 37° C. After the incubation, each sample was directly used for sample acquisition using flow cytometer (FACS ARIA II, BD Biosciences, San Jose, Calif.). After initial detection of Tau plaque particles, gates were drawn in the acquisition blot to separately sort and isolate fluorescently labeled Tau plaque particles.
as §1, §2

B1: Heparin cofactor 2 (protein)
chain: GSKGPLDQLEKGGETAQSADPQWEQLNNKNLSMPLLPADFHKENTVTNDWIPEGEEDDDYLDLEKIFSEDDDYIDIVDSLSVSPTDSDVSAGNILQLFHGKSRIQRLNILNAKFAFNLYRVLKDQVNTFDNIFIAPVGISTAMGMISLGLKGETHEQVHSILHFKDFVNASSKYEITTIHNLFRKLTHRLFRRNFGYTLRSVNDLYIQKQFPILLDFKTKVREYYFAEAQIADFSDPAFISKTNNHIMKLTKGLIKDALENIDPATQMMILNCIYFKGSWVNKFPVEMTHNHNFRLNEREVVKVSMMQTKGNFLAANDQELDCDILQLEYVGGISMLIVVPHKMSGMKTLEAQLTPRVVERWQKSMTNRTREVLLPKFKLEKNYNLVESLKLMGIRMLFDKNGNMAGISDQRIAIDLFKHQGTITVNEEGTQATTVTTVGFMPLSTQVRFTVDRPFLFLIYEHRTSCLLFMGRVANPSRS
- Semi-quantitative analysis of proteins binding to different plaque particles: Abeta-42 [1]: 0
- Semi-quantitative analysis of proteins binding to different plaque particles: Chl small [2]: 1
- Semi-quantitative analysis of proteins binding to different plaque particles: Chl Large [3]: 3
- Semi-quantitative analysis of proteins binding to different plaque particles: Synuclein [4]: 1
- Semi-quantitative analysis of proteins binding to different plaque particles: Tau (Tau plaque particles): 6

B2: Complement factor I (protein)
chain: KVTYTSQEDLVEKKCLAKKYTHLSCDKVFCQPWQRCIEGTCVCKLPYQCPKNGTAVCATNRRSFPTYCQQKSLECLHPGTKFLNNGTCTAEGKFSVSLKHGNTDSEGIVEVKLVDQDKTMFICKSSWSMREANVACLDLGFQQGADTQRRFKLSDLSINSTECLHVHCRGLETSLAECTFTKRRTMGYQDFADVVCYTQKADSPMDDFFQCVNGKYISQMKACDGINDCGDQSDELCCKACQGKGFHCKSGVCIPSQYQCNGEVDCITGEDEVGCAGFASVTQEETEILTADMDAERRRIKSLLPKLSCGVKNRMHIRRKRIVGGKRAQLGDLPWQVAIKDASGITCGGIYIGGCWILTAAHCLRASKTHRYQIWTTVVDWIHPDLKRIVIEYVDRIIFHENYNAGTYQNDIALIEMKKDGNKKDCELPRSIPACVPWSPYLFQPNDTCIVSGWGREKDNERVFSLQWGEVKLISNCSKFYGNRFYEKEMECAGTYDGSIDACKGDSGGPLVCMDANNVTYVWGVVSWGENCGKPEFPGVYTKVANYFDWISYHVGRPFISQYNV
- Semi-quantitative analysis of proteins binding to different plaque particles: Abeta-42 [1]: 0
- Semi-quantitative analysis of proteins binding to different plaque particles: Chl small [2]: 3
- Semi-quantitative analysis of proteins binding to different plaque particles: Chl Large [3]: 4
- Semi-quantitative analysis of proteins binding to different plaque particles: Synuclein [4]: 4
- Semi-quantitative analysis of proteins binding to different plaque particles: Tau (Tau plaque particles): 3

B3: Complement C1r subcomponent (protein)
chain: SIPIPQKLFGEVTSPLFPKPYPNNFETTTVITVPTGYRVKLVFQQFDLEPSEGCFYDYVKISADKKSLGRFCGQLGSPLGNPPGKKEFMSQGNKMLLTFHTDFSNEENGTIMFYKGFLAYYQAVDLDECASRSKSGEEDPQPQCQHLCHNYVGGYFCSCRPGYELQEDTHSCQAECSSELYTEASGYISSLEYPRSYPPDLRCNYSIRVERGLTLHLKFLEPFDIDDHQQVHCPYDQLQIYANGKNIGEFCGKQRPPDLDTSSNAVDLLFFTDESGDSRGWKLRYTTEIIKCPQPKTLDEFTIIQNLQPQYQFRDYFIATCKQGYQLIEGNQVLHSFTAVCQDDGTWHRAMPRCKIKDCGQPRNLPNGDFRYTTTMGVNTYKARIQYYCHEPYYKMQTRAGSRESEQGVYTCTAQGIWKNEQKGEKIPRCLPVCGKPVNPVEQRQRIIGGQKAKMGNFPWQVFTNIHGRGGGALLGDRWILTAAHTLYPKEHEAQSNASLDVFLGHTNVEELMKLGNHPIRRVSVHPDYRQDESYNFEGDIALLELENSVTLGPNLLPICLPDNDTFYDLGLMGYVSGFGVMEEKIAHDLRFVRLPVANPQACENWLRGKNRMDVFSQNMFCAGHPSLKQDACQGDSGGVFAVRDPNTDRWVATGIVSWGIGCSRGYGFYTKVLNYVDWIKKEMEEED
- Semi-quantitative analysis of proteins binding to different plaque particles: Abeta-42 [1]: 0
- Semi-quantitative analysis of proteins binding to different plaque particles: Chl small [2]: 4
- Semi-quantitative analysis of proteins binding to different plaque particles: Chl Large [3]: 2
- Semi-quantitative analysis of proteins binding to different plaque particles: Synuclein [4]: 3
- Semi-quantitative analysis of proteins binding to different plaque particles: Tau (Tau plaque particles): 4
